How the values were obtained:
[1] = target: CTLA4-muFc (fusion protein of human CTLA4 and mouse Fc) (human); assay: competitive flow cytometry; taken as CTLA4-muFc with human CD86 on HEK293-CD86 cells as the blocked ligand, from the order of paragraph 274 and paragraph 275; the panel has no title
[2] = target: T1, human CTLA4 expressed on HEK293-CTLA4 cells (human, UniProt P16410 36-223); assay: flow cytometry on HEK293-CTLA4 cells, MFI, four-parameter fit
T1 construct: whole, on cells; also called human CTLA4 on the cell surface
Description: 3% of BSA/PBS was used to adjust the density of HEK293-CTLA4 cells to 3×10⁶ cells/ml.
Then, APC-goat anti-mouse IgG at a dilution of 1:100 was used, and placed on ice for 30 min for reaction. After that, they were washed with 1% of BSA/PBS and resuspended, and then detected on a FACS machine (using a Guava EasyCyte instrument).
The flow cytometry results were analyzed by Guava 5.3.1 to calculate the mean fluorescence intensity (MFI) of the detected samples. The log values of the obtained MFI versus the concentrations of the samples were calculated, and the experimental results were fit with four parameters using GraphPad Prism 6.0.

[3] = target: T1, human CTLA4 expressed on HEK293-CTLA4 …; assay: competitive flow cytometry; taken as HEK293-CTLA4 cells with CD86-muFc as the blocked ligand, from the order of paragraph 274 and paragraph 275; the panel has no title

- IC50 (read off the curve) [1]: ~10 nM
- EC50 [2]: 2.01 nM
- IC50 (read off the curve) [3]: ~8 nM
B1: KN044 (VHH)
VHH: QVQLVESGGGLVQPGGSLRLSCAASGYIYSAYCMGWFRQAPGKGLEGVAAIYIGGGSTYYADSVKGRFTISRDNSKNTLYLQMNSLRAEDTAVYYCAADVIPTETCLGGSWSGPFGYWGQGTLVTVSS

Reference: patent US20220251207A1 (JIANGSU ALPHAMAB BIOPHARMACEUTICALS, published 2022)
